We go through one substance from publication doi:10.1101/2023.05.30.542831.

The target of the assay is APB-R3, long-acting recombinant human IL-18BP linked to the human albumin-binding Fab fragment SL335 (human). In words: SPR. A general note: In SPR one partner is held on a chip, and binding of the other changes the refractive index at the surface.

As to “human IL-18 (from UniProt Q14116 37-193) (ligand)”, the Kd was 0.0609 nM.

In general, Kd refers to the free concentration of one partner at which half of the binding sites on the other are occupied at equilibrium, for simple one-to-one binding.
